# Data reported in publication doi:10.1101/2021.01.18.427223.
# Biological target: VPS35 D620N (VPS35 D620N knock-in mouse, VKI) (mouse (endogenous in brain)), Q9EQH3
# Assay: co-IP
# Details: remark: other sources report otherwise
binder,measurement,value
"WASH complex member FAM21, Q6PGL7 1-1334 (natural protein) MNRTSPDSERPPASEPVWERPWSVEEIRRSSQNWSLAADAGLLQFLQEFSQQTISRTHEIKKQVDGLIQETKATHCRLHNVFNDFLMLSNTQFIENRVYDEEVEEQVLKAEAEKAEQEKTREQKEIDLIPKVQEAVNYGLQVLDSAFEQLDIKAGNSDSEEDDANERVDLILEPKDLYIDRPLPYLIGSKLFMEQEDVGLGELSSEEGSVGSDRGSIVDSEDEKEEEESDEDFASHSDNDQNQHTTQISDEEEDDDGDLFADSEKEGDDIEDIEESAKSKRPTSFADELAARIKGDISNQRKEGQTDGKPQKTVKEKKERRTPADDEEDILFPPPTLTDEDFSPFGSRGGLFSNGQGLFDDEDESDLFKEAPRARPAQAPVSEELPPSPKPGKKIPAGAVSVLLGHPDVSGSTSAPSLKELQKHGQPTPGKSSHLPTPAGLFDDDDNDNDEDDNNFFMPSSSKPSKTDKVKSTAIIFDDDEGDLFKEKAEALPAASVSQTHESKTRADKTIALPSSKNLKLVSETKTQKGLFSDEEDSEDLFSSQSSSKPKSASLPSSQPPTSVSLFGDEDEEDSLFGSAAAKKQTSSLQPQSQEKAKPSEQPSKKTSALLFSSDEEDQWNIADSHTKLASDNKSKGELWDSGATQGQEAKAVKKTNLFEDDDDDEVDLFAIAKDSQKKTQRTSLLFEDDAESGSSLFGLPPTSVPSATTKKESVPKVPLLFSDEEDSEVPSGVKPEDLKVDNARVSPEVGSADVASIAQKEGLLPASDQEAGGPSDIFSSSSPLDKGAKGRTRTVLSLFDEDEDKVEDESSTCAPQDGREKGLKTDSRPKSTGVFQDEELLFSHKLQKDNDPDVDLFAGTKKIRSSVPSGGSLFGDDEDDDLFSSAKTQPVVPEKKGTLKKDHPVSLKNQDPLDSTQGSKEKSTWKTEPAQDSSGLTPFKSREPSSRIGKIQANLAINPAALLPTVALQIPGTKPVSSELAFPSSEPGRSHILESVPTLPGSVEAGVSFDLPAQADTLHSANKSRVKVRGKRRPQTRAARRLAAQESSEAEDVTVDRGPVAQLSSSPVLPNGHQPLLQPRMASGQTSSETATAPPWEGGPVLSAADRSFFVKSRPQTGNEADLFDSGDIFPKSRGSQSVEGAGVMAGEPPSHSSGGRKEKSLAFPDLSEGSSTEDLFQSVKPRAAKNRNPFPLLEDEEDLFADPRGKKNERKPDSHQDSVSKTHDIFEDDIFATEAIKPFPKKREKGRTLEPNLFDDNIDIFADLTVKPKEKSKKKVAAKSMFDDDTDDIFSSGLQAKASKPKSQSAEAASEQRSEHKVASIFDDPLNAFGSQ",percent reduction of co-IP against wild type,25 to 30%
